Experimental data published in patent US11906524B2, “Urea biosensors and uses thereof” (Duke University, priority 2015, dated 2024).
Like-named read-outs stand apart in the source and are kept apart here.

Experiments:
[1] = Thermal stability of purified UBP candidates (SYPRO Orange thermal melt, Roche LightCycler); type: physicochemical; conditions: apo-protein; SYPRO Orange monitors unfolded protein
Procedure: The urea-binding properties of these leads were determined experimentally (Table 4). These experiments comprise four successive steps: • 1. Synthetic gene construction. […] Heterologous protein expression of the homologues in E. coli. […] Verification of urea binding.
Analysis of urea-binding properties using thermal melts.

[2] = Temperature- and urea-dependent fluorescence landscapes of fluorescent conjugates (Roche LightCycler); type: binding; design: key: y, yes; n, no; conditions: fluorescent response to urea
In short: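 Acrylodan or Badan was attached to single-cysteine csUBP7 mutants and fluorescence was recorded over 0–4.8 M urea in 20 mM KCl, 20 mM MOPS (pH 7.4), with temperature stepped by 1K. Urea Kd came from ratiometric single-site fits, and Kd values across temperatures were fit to the Gibbs-Helmholtz equation.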

[3] = Urea titration of emission intensity spectra (Nanodrop3300) with ratiometric analysis, singly labeled conjugates; type: binding; design: key to Acrylodan Intensity / Badan Intensity: +, increases in response to urea; −, decreases; 0, no change; key to Badan Dipoles / Acrylodan Dipoles: blue, (maxima <500 nm); g, green (maxima >500 nm); b/g, mixed population; key to Acrylodan Shape / Badan Shape: m, monochromatic; d, dichromatic (i.e. spectral shape changes); 0, no change; conditions: for Acrylodan Shape / Badan Shape: emission spectrum shape change on urea; for Acrylodan Dipoles / Badan Dipoles: estimated change in populations of major emission bands; for Badan Intensity / Acrylodan Intensity: emission intensity change on urea; for Kd: urea
Source text: Determination of emission intensity spectra.
Ratiometric analysis of urea binding. […] 2
For a single urea-binding site, the fractional saturation is given by
[formula] where [L] is the ligand (urea) concentration and Kd the dissociation constant, ^trueKd for ytrue.
[formula] where ^appIλ2 and ^satIλ2 are the emission intensities of the monochromatic signal at wavelength λ2 of the ligand-free and ligand-bound protein, respectively.

[4] = csUBP7 Badan conjugate, read-out: Badan ^trueKd

B1: psUBP11: urea-binding protein from Paenibacillus sp. with FATT domain, SEQ ID NO: 21 (protein)
chain: MAEESDNVDSADAEEDDSDVWWGGADTDYADGSEDKVVEVAEEEEVAEVEEEEADDDEDDEDGDEVEEEAEEPYEEATERTTSIATTTTTTTESVEEVLEVLFQGPKETAPTAGAGNGSPPVEAAGDSIKVGILHSLSGTMAISEVSVKDAEMLAIEEINAAGGVLGKQIEPVIEDGASDWPTFAEKAGKLLQQDKVAAVFGGWTSASRKAMLPVFEQNHGLLFYPVQYEGLESSPNIFYTGATTNQQIVPSVSWLLENRGKKMFLLGSDYVFPRTANKIIKAQLTAEGGELAGEEYTPLGHTDFSTIIAKIKEAKPDIVYNTLNGDSNVAFFKQLKDAGTTSKDMTTLSVSVAEEEIRGIGADILEGHLAAWNYYQSTDTPENKAFVDKYKAKYGADRVTADPIEAGYTAVYLWKAAVEKAGTTDVDKVKEAAKGIEFAAPEGKVTIDGDNQHIHKTVRIGEVQADGQFKELWNSGEPVKPDPYLKTYDWAKGLSGEGGSHHHHHH
modifications: psUBP11 (with signal peptide replaced with M, which is followed by a FATT domain, followed by a sequence fragment for C3 protease, and with a GGSHHHHHH at C-terminus)
- Thermostability ^apoTm [1]: 80 °C

B2: csUBP7: urea-binding protein from Caldicellulosiruptor saccharolyticus, C89A, SEQ ID NO: 18 (protein)
chain: MSSSESEKEKSEETIKVGILHSLSGTMSISEVSLKDAELMAIEEINNNGGVLGKKLEPIVEDGASDWPTFAEKAKKLLQKDKVAVIFGAWTSASRKAVLPVVEENNGLLFYPVQYEGLESSPNIFYMGAAPNQQIVPAVKWLFDNGKKRFYLLGSDYVFPRTANKIIKAYLKYLGGVVVGEEYTPLGHTDYSSVINKIKAAKPDVVFNTLNGDSNVAFFKQLKDAGIDANTLPVMSVSIAEEEIKGIGPEYLKGHLVTWNYFQSVDTPENKEFVEKYKKKYGEDRVTDDPIEAAYIGVYLWAKAVEKAGSTDVDKVREAAKGIEFNAPEGPVKIDGDNQHLYKTVRIGEILENGQIRELWKTNKPVKPDPYLKGYEWAQGLSEQGGSHHHHHH
modifications: csUBP7 (with signal peptide replaced with M and a GGSHHHHHH at C-terminus, and also comprising a C89A substitution)
- Thermostability ^apoTm [1]: 67 °C

B3: csUBP7 N211C: csUBP7 211C cysteine mutant (SEQ ID NO: 41), tested as Acrylodan and Badan conjugates (conjugate)
chain: MSSSESEKEKSEETIKVGILHSLSGTMSISEVSLKDAELMAIEEINNNGGVLGKKLEPIVEDGASDWPTFAEKAKKLLQKDKVAVIFGAWTSASRKAVLPVVEENNGLLFYPVQYEGLESSPNIFYMGAAPNQQIVPAVKWLFDNGKKRFYLLGSDYVFPRTANKIIKAYLKYLGGVVVGEEYTPLGHTDYSSVINKIKAAKPDVVFNTLCGDSNVAFFKQLKDAGIDANTLPVMSVSIAEEEIKGIGPEYLKGHLVTWNYFQSVDTPENKEFVEKYKKKYGEDRVTDDPIEAAYIGVYLWAKAVEKAGSTDVDKVREAAKGIEFNAPEGPVKIDGDNQHLYKTVRIGEILENGQIRELWKTNKPVKPDPYLKGYEWAQGLSEQGGSHHHHHH
modifications: Acrylodan or Badan conjugate; csUBP7_211C (211C substitution mutant with signal peptide replaced with M and a GGSHHHHHH at C-terminus, and also comprising a C89A substitution)
- Response ([2]; Acrylodan conjugate): y
- Response ([2]; Badan conjugate): y
- Acrylodan Shape ([3]; csUBP7 Acrylodan conjugate): 0
- Acrylodan Dipoles ([3]; csUBP7 Acrylodan conjugate): g (g, green (maxima >500 nm))
- Badan Intensity ([3]; csUBP7 Badan conjugate): +
- Badan Shape ([3]; csUBP7 Badan conjugate): d
- Badan Dipoles ([3]; csUBP7 Badan conjugate): g→b/g
- Kd [3, 4]: 15 mM

B4: csUBP7 L186C: csUBP7 186C cysteine mutant (SEQ ID NO: 40), tested as Acrylodan and Badan conjugates (conjugate)
chain: MSSSESEKEKSEETIKVGILHSLSGTMSISEVSLKDAELMAIEEINNNGGVLGKKLEPIVEDGASDWPTFAEKAKKLLQKDKVAVIFGAWTSASRKAVLPVVEENNGLLFYPVQYEGLESSPNIFYMGAAPNQQIVPAVKWLFDNGKKRFYLLGSDYVFPRTANKIIKAYLKYLGGVVVGEEYTPCGHTDYSSVINKIKAAKPDVVFNTLNGDSNVAFFKQLKDAGIDANTLPVMSVSIAEEEIKGIGPEYLKGHLVTWNYFQSVDTPENKEFVEKYKKKYGEDRVTDDPIEAAYIGVYLWAKAVEKAGSTDVDKVREAAKGIEFNAPEGPVKIDGDNQHLYKTVRIGEILENGQIRELWKTNKPVKPDPYLKGYEWAQGLSEQGGSHHHHHH
modifications: Acrylodan or Badan conjugate; csUBP7_186C (186C substitution mutant with signal peptide replaced with M and a GGSHHHHHH at C-terminus, and also comprising a C89A substitution)
- Response ([2]; Acrylodan conjugate): y
- Response ([2]; Badan conjugate): n
- Acrylodan Intensity ([3]; csUBP7 Acrylodan conjugate): −
- Acrylodan Shape ([3]; csUBP7 Acrylodan conjugate): d
- Acrylodan Dipoles ([3]; csUBP7 Acrylodan conjugate): b/g→g
- Badan Shape ([3]; csUBP7 Badan conjugate): 0
- Badan Dipoles ([3]; csUBP7 Badan conjugate): g (g, green (maxima >500 nm))

B5: csUBP7 Y157C: csUBP7 157C cysteine mutant (SEQ ID NO: 37), tested as Acrylodan and Badan conjugates (conjugate)
chain: MSSSESEKEKSEETIKVGILHSLSGTMSISEVSLKDAELMAIEEINNNGGVLGKKLEPIVEDGASDWPTFAEKAKKLLQKDKVAVIFGAWTSASRKAVLPVVEENNGLLFYPVQYEGLESSPNIFYMGAAPNQQIVPAVKWLFDNGKKRFYLLGSDCVFPRTANKIIKAYLKYLGGVVVGEEYTPLGHTDYSSVINKIKAAKPDVVFNTLNGDSNVAFFKQLKDAGIDANTLPVMSVSIAEEEIKGIGPEYLKGHLVTWNYFQSVDTPENKEFVEKYKKKYGEDRVTDDPIEAAYIGVYLWAKAVEKAGSTDVDKVREAAKGIEFNAPEGPVKIDGDNQHLYKTVRIGEILENGQIRELWKTNKPVKPDPYLKGYEWAQGLSEQGGSHHHHHH
modifications: Acrylodan or Badan conjugate; csUBP7_157C (157C substitution mutant with signal peptide replaced with M and a GGSHHHHHH at C-terminus, and also comprising a C89A substitution)
- Response ([2]; Acrylodan conjugate): y
- Response ([2]; Badan conjugate): y
- Acrylodan Intensity ([3]; csUBP7 Acrylodan conjugate): +
- Acrylodan Shape ([3]; csUBP7 Acrylodan conjugate): m
- Kd ([3]; csUBP7 Acrylodan conjugate, read-out: Acrylodan ^trueKd): 3.4 mM
- Badan Intensity ([3]; csUBP7 Badan conjugate): +
- Badan Shape ([3]; csUBP7 Badan conjugate): m
- Badan Dipoles ([3]; csUBP7 Badan conjugate): b/g
- Kd [3, 4]: 16 mM

B6: gkUBP10: urea-binding protein from Geobacillus kaustophilus with FATT domain, SEQ ID NO: 20 (protein)
chain: MAEESDNVDSADAEEDDSDVWWGGADTDYADGSEDKVVEVAEEEEVAEVEEEEADDDEDDEDGDEVEEEAEEPYEEATERTTSIATTTTTTTESVEEVLEVLFQGPASSAVDQAKNENKKDSSSASKEGDTVKVGILHSLSGTMAISEVSLRDAELMAIEEINASGGLLGKKIEPVVEDGASDWPTFAEKAKKLLQKDQVAAIFGGWTSASRKAMLPVVEQNNGLLWYPVQYEGMESSPNIFYTGATTNQQIVPAVSWLLKNRGKTFFLLGSDYVFPRTANKIIKAQLKAEGGQVVGEEYTPLGHTDYSTIISKIKQVKPAVVFNTLNGDSNVAFFKQLKDAGITPKDVTVMSVSIAEEEIRGIGPDVLAGHLAVWNYFQTTDTPENKAFVQKYKEKYGQDRVTDDPIEAAYTAVHLWAEAVKKAGSFDVDQVKKAAAGLEYKAPEGTVKIDGETQHLWKTVRIGEIQADGQFKELWNSGQPVKPDPYLKSYPWAKGLSEGGSHHHHHHHH
modifications: gkUBP10 (with signal peptide replaced with M, which is followed by a FATT domain, followed by a sequence fragment for C3 protease, and with a GGSHHHHHH at C-terminus)
- Thermostability ^apoTm [1]: >100 °C

B7: ctUBP6: urea-binding protein from Clostridium thermocellum, SEQ ID NO: 17 (protein)
chain: MVEEPVDNKPGTDTSAEDTIKVGILHSLSGTMAISEVSLKDAELMAIEEINQAGGLLGKKIEPVIEDGASDWPTFAEKAKKLLQNDKVATVFGCWTSASRKAVLPVFEENNGLLWYPVQYEGMESSPNIFYTGAAPNQQIVPAVEWLLENKGKRFFLLGSDYVFPRTANKIIKAQLSAIGGELIAEEYTPLGHTDYSTIVNKIKTAKPDVVFNTLNGDSNVAFFKQLKDAGITSEDITVCSVSVAEEEIRGIGAENIKGHLVSWNYYQTTDTPENKEFVEKYKSKYGSDRVTDDPIEAAYIAVHLWAEAVKKAGSFEVEKVKEAAKGLEFKAPEGLVKIEGENQHLWKPVRIGEVQEDGLIKEIWSTSEAVRPDPYLKTYDWAKGLSDGGSHHHHHH
modifications: ctUBP6 (with signal peptide replaced with M and a GGSHHHHHH at C-terminus)
- Thermostability ^apoTm [1]: 89 °C
